According to IntAct's records for PubMed 21115843:

Molecular target: notc1_mouse Notch1 (UniProt Q01705)

effect of a mutation on the interaction: disrupting interaction
Substance: Presenilin-1 (Homo sapiens) (from UniProt P49768) D385A
